Tests used:
HA-Halo-mGluR2 = HA-Halo-mGluR2 (rat, UniProt P31421 19-872, Halo tag labeled with CA-SS-Alexa-488); assay: single-molecule pulldown
HA-Halo-mGluR8 = HA-Halo-mGluR8 (human, UniProt O00222 34-908, Halo tag labeled with CA-SS-Alexa-488); assay: single-molecule pulldown
HA-Halo-mGluR8, sequence (O00222 34-908): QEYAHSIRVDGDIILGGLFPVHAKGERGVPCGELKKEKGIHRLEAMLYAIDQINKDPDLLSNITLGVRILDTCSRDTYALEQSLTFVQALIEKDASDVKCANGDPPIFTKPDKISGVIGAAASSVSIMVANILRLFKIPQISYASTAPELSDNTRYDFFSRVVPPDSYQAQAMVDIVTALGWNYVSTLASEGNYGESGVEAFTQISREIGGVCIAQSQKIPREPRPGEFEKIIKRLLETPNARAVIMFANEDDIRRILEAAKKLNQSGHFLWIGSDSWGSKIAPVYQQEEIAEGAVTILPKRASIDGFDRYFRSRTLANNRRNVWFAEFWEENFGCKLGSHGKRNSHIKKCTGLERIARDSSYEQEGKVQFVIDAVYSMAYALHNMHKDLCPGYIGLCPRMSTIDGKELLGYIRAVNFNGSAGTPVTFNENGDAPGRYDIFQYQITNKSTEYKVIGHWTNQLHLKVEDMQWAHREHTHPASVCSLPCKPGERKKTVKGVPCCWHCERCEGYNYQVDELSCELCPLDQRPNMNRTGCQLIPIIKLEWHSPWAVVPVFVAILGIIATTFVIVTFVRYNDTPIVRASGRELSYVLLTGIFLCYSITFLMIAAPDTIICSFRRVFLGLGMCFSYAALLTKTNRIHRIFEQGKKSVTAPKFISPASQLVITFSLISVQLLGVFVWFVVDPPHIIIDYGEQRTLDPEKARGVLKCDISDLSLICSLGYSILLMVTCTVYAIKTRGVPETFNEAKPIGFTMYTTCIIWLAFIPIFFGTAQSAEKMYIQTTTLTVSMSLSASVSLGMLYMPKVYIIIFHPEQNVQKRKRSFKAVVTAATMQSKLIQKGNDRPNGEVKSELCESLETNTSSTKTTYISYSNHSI

HA-Halo-mGluR2, sequence (P31421 19-872): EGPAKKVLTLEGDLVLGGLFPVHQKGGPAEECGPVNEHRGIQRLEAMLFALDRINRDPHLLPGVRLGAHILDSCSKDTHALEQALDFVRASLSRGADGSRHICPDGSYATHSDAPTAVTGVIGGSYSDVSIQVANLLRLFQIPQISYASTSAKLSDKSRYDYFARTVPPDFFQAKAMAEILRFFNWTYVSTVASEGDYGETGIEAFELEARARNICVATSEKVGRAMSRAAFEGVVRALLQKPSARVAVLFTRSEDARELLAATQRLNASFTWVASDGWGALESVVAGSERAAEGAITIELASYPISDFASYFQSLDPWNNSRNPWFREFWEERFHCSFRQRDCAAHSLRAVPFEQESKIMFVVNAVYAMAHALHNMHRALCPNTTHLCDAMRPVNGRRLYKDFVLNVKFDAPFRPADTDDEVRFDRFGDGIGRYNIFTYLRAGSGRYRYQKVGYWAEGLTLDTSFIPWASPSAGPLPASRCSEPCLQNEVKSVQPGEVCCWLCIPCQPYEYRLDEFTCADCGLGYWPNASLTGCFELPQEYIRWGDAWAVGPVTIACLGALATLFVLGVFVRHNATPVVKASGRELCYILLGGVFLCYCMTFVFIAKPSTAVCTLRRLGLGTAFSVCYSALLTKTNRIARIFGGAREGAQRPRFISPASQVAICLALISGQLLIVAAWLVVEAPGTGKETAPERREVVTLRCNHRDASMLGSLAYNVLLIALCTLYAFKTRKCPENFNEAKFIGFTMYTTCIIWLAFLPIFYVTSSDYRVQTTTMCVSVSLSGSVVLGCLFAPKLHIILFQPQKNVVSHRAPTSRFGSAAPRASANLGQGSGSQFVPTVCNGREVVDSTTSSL

B1: SNAP-mGluR3 without an HA tag (receptor)
chain: LGDHNFMRREIKIEGDLVLGGLFPINEKGTGTEECGRINEDRGIQRLEAMLFAIDEINKDNYLLPGVKLGVHILDTCSRDTYALEQSLEFVRASLTKVDEAEYMCPDGSYAIQENIPLLIAGVIGGSYSSVSIQVANLLRLFQIPQISYASTSAKLSDKSRYDYFARTVPPDFYQAKAMAEILRFFNWTYVSTVASEGDYGETGIEAFEQEARLRNICIATAEKVGRSNIRKSYDSVIRELLQKPNARVVVLFMRSDDSRELIAAANRVNASFTWVASDGWGAQESIVKGSEHVAYGAITLELASHPVRQFDRYFQSLNPYNNHRNPWFRDFWEQKFQCSLQNKRNHRQVCDKHLAIDSSNYEQESKIMFVVNAVYAMAHALHKMQRTLCPNTTKLCDAMKILDGKKLYKEYLLKINFTAPFNPNKGADSIVKFDTFGDGMGRYNVFNLQQTGGKYSYLKVGHWAETLSLDVDSIHWSRNSVPTSQCSDPCAPNEMKNMQPGDVCCWICIPCEPYEYLVDEFTCMDCGPGQWPTADLSGCYNLPEDYIKWEDAWAIGPVTIACLGFLCTCIVITVFIKHNNTPLVKASGRELCYILLFGVSLSYCMTFFFIAKPSPVICALRRLGLGTSFAICYSALLTKTNCIARIFDGVKNGAQRPKFISPSSQVFICLGLILVQIVMVSVWLILETPGTRRYTLPEKRETVILKCNVKDSSMLISLTYDVVLVILCTVYAFKTRKCPENFNEAKFIGFTMYTTCIIWLAFLPIFYVTSSDYRVQTTTMCISVSLSGFVVLGCLFAPKVHIVLFQPQKNVVTHRLHLNRFSVSGTATTYSQSSASTYVPTVCNGREVLDSTTSSL
modifications: SNAP tag labeled with SBG-JF646
stoichiometry N (HA-Halo-mGluR2): 1 | stoichiometry N (HA-Halo-mGluR8): 1

Source: paper PMC10699790 (Science Advances, 2023)
